T1: human Nectin-4 (cell surface nectin-4 on SUM190 tumor cells; nectin-4 in breast cancer tissues) (UniProt Q96NY8 32-510)
T1 chain: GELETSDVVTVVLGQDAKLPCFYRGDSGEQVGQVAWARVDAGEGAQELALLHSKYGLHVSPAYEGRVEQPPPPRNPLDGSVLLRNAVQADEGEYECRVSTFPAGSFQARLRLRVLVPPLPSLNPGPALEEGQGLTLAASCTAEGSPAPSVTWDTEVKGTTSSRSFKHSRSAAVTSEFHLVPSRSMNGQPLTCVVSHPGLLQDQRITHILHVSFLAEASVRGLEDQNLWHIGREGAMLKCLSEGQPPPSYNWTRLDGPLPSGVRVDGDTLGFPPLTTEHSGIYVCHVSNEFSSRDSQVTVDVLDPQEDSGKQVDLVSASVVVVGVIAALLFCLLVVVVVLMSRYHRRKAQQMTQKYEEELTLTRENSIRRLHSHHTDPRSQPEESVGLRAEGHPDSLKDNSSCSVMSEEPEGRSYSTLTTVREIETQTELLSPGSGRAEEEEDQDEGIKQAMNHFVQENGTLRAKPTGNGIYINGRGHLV

T2: human Nectin-4 (cell surface nectin-4 on SUM190 tumor cells; nectin-4 in breast cancer tissues) (human, UniProt Q96NY8 32-510)
T2 construct: Endogenous nectin-4 of the human SUM190 breast cancer cell line (FACS) and of patient FFPE tumour tissue (IHC); also called PVRL4
T2 sequence: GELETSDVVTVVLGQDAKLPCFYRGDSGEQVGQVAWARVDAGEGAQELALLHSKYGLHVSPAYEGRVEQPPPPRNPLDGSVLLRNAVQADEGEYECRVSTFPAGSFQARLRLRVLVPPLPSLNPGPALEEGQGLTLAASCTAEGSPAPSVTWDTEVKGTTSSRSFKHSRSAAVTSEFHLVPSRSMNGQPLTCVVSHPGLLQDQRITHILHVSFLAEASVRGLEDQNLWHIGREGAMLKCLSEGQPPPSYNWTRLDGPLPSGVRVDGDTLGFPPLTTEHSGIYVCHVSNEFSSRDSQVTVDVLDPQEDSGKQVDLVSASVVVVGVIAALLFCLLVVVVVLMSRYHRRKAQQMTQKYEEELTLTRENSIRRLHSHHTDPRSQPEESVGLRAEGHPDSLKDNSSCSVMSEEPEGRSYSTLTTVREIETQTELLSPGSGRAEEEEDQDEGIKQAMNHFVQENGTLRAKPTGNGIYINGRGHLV

T3: Nectin-4 (SUM190 cells) (UniProt Q96NY8 32-510)
T3 chain: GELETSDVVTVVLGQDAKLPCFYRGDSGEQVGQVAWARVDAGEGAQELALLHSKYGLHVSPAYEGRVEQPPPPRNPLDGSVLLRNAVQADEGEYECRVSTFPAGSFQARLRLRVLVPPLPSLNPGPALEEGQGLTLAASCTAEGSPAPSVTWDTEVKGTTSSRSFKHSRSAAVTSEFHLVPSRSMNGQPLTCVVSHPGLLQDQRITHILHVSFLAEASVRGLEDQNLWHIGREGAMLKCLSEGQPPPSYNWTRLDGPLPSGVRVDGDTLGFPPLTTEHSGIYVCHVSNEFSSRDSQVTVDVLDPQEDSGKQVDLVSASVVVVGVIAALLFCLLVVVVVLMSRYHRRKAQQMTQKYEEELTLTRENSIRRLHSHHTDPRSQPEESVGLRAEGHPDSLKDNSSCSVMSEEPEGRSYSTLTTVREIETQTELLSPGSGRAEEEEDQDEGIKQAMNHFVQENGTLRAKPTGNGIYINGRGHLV

B1: murine monoclonal antibody 5A12.2 (hybridoma CNCM I-5407) (antibody, V domains shown)
VH: QIQLQQSGAELVKPGASVTLSCKTSGFTFNSMYISWLKQKPGQSLEWIAWIYAGTGGTRFNQKFTGKVQLTVDTSSSTAYMQFSSLTTDDSAIYYCAIRSGFVPMDYWGQGTSVTVSS
VL: SIVMTQTPKFLLVSAGDRVTITCKASQSVSNDVAWYQQKPGQSPKLLIYYASNRYTGVPDRFTGSGYGTDFTFTISTVQAEDLAVYFCQQDYSSPWTFGGGTKLEIK
notes: Whole murine monoclonal antibody from a hybridoma with a kappa light chain; also called mAb 5A12.2; 5A12.2 mAb
B2: 14A5 (antibody, V domains shown)
VH: EVLLQQSGPELVKPGASVKIPCKASGYTFTDYTMDWVKQSHGKSLEWIGDINPNNDVTMYNEKFKGRATLTVDKSSSTAYMEVRSLTSEDTAVYYCVRGRGFAYWGQGTLVTVSA
VL: DIVLTQSPASLIVSLGQRATISCRASQSVSTSSNSYMHWYQQKPGQPPKLLIRFASNLESGVPARFSGSGSGTYFTLNIHPVEEEDSATYYCQHSWEIPYTFGGGTKLEIK
B3: N41 (antibody, V domains shown)
VH: QVQLKQSGPGLVQPSQSLSITCTVSGFSLTNYGVHWVRQSPGKGLEWLGVIWSGGSTDYNAAFISRLSISKDTSKSQVFFKMNSLQADDTAIYYCARELIHAMDNWGQGTSVTVSS
VL: DIQMTQSPASLSVSVGETVTITCRASENIYSNLAWYQQKQGNSPQLLVFAATNLADGVPSRFSGSGSGTQYSLKINSLQSEDFGTYYCQHFWGTPTFGGGTKLEIK

Legend:
[1] = molecular target: T1, human Nectin-4 (cell surface nectin-4 …); test: FACS
[2] = molecular target: T2, human Nectin-4 (cell surface nectin-4 …); test: FACS on SUM190 cells, serial dilutions of mAb
Experimental: MAbs were tested for binding to cell surface nectin-4 expressed by SUM190 tumor cells. […] F-Max value corresponds to the maximum fluorescence intensity (a.u.) measured by FACS analysis.
FACS analysis was performed on SUM190 breast cancer cell line using indicated concentration of nectin-4 monoclonal antibodies. Cells were then stained with phycoerythrin conjugate goat anti mouse antibody (Beckman-Coulter).
KD values were defined by FACS analysis using serial dilutions of monoclonal antibodies. […] Maximum fluorescence intensity was measured by FACS analysis.

[3] = molecular target: T3, Nectin-4 (SUM190 cells); test: FACS

Binder | EC50 [1] | binding result [2] | EC50 [3]
B1 | 0.018 µg/mL | binds | 
B2 |  |  | 0.034 µg/mL
B3 |  |  | 0.052 µg/mL

Source: US20230183337A1 (UNIVERSIT D AIXMARSEILLE, published 2023)
